Results taken from patent publication WO2022025129A1 (dated 2022).

What was measured:
[1] = target: HBs antigen of genotype C HBV (infectious virus) (Hepatitis B virus (HBV) genotype C); experiment: cell-based or functional assay
[2] = target: T1, human insulin (Fujifilm Wako Pure Chemical) (human, UniProt P01308 25-54; P01308 90-110); experiment: ELISA, human insulin coated on the plate, anti-human IgG-HRP
T1 construct: also called human-derived component
T1 sequence (P01308 25-54 limits assumed, chain 1 of 2): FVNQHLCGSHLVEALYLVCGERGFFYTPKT
T1 sequence (P01308 90-110 limits assumed, chain 2 of 2): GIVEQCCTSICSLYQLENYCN

| Binder | neutralization activity against commercially available HBIG (reduction of HBe antigen, PXB cells) [1] | binding result [2] |
| --- | --- | --- |
| 3B6 antibody (recombinant human anti-HBs monoclonal antibody) (antibody, V domains shown, also called 3B6 clone) VH: EVQLVESGGGVVQPGKSLRVSCAASGFSFSNYGMHWVRQAPGKGLEWVSVIWRDGSHQYYADSVKGRFTVSRDNARDTLFLQMDGLRAEDTAVYYCAREDPAIVLPVLDHWGRGTLVTVSS VL: AAAMTQSPVSLSASVGDRVTITCRASQRINSYLNWYQQKPGKAPKLLIYGASNLPSGVPSRFSGSGSGTYFTLTISSLQPEDLATYYCQQGYSTPLLSFGPGTKVEIKR | ≥ 10 fold against commercially available HBIG | no binding (tested: 特異抗原であるHBsへの結合が飽和する濃度の10倍以上の抗体濃度) |
| 5A4 antibody (recombinant human anti-HBs monoclonal antibody) (antibody, V domains shown, also called 5A4 clone) VH: QVQLQESGPGLVKPSDTLSLTCTVSGGSISGHYWSWIRRLPGGGLEWIGYIHYSGITNYNPSLKSRVTMSVDMSKNQFSLRLRSVTATDTAVYYCARGDATYGYWGQGAPVTVSS VL: AAAMTQSPFTLPVTPGEPASISCRSSQSLLHRNGYNYVNWYLRKPGQSPQLLISLGSDRASGVPDRFRGSGAGTDFTLKISRVEAEDVGVYYCMQALRTPWTFGQGTKVEIKR | ≥ 10 fold against commercially available HBIG | no binding (tested: 特異抗原であるHBsへの結合が飽和する濃度の10倍以上の抗体濃度) |
| M2-11 antibody (recombinant human anti-HBs monoclonal antibody) (antibody, V domains shown, also called M2-11 clone) VH: QVQLVESGGGLVKPGESLRLSCAASGFMFSGHSMVWVRQAPGKGLEWVSFIGSTGEFISYADSVRGRFTISRDNAKNSLYLQMNSLRADDTAVYYCAREQGTRGRYYYYGLDVWGQGTTVTVSS VL: AAAMTQTPPSLSLSPGESATLSCRASQSVSTYLAWYQQKPGQAPRLLIYDAFNRATGIPARFSGSGSGTDFTLTISGLEPEDFAVYYCQQRGHWPLTFGGGTKVEIKR | ≥ 10 fold against commercially available HBIG | no binding (tested: 特異抗原であるHBsへの結合が飽和する濃度の10倍以上の抗体濃度) |
